Experimental data taken from the supplement of paper PMC10065799, “High-throughput profiling of sequence recognition by tyrosine kinases and SH2 domains using bacterial peptide display” (eLife, 2023).

Assays:
AncSZ = test: phosphorylation enrichment, bacterial display (enrichment ratio); higher = better substrate or ligand; peptides without Tyr show the background
EPHB1 = EPHB1 (UniProt P54762); test: as above
EPHB2 = EPHB2 (UniProt P29323); test: as above
FGFR1 = FGFR1 (UniProt P11362); test: as above
Sequence of FGFR1 (P11362 whole entry, looked up): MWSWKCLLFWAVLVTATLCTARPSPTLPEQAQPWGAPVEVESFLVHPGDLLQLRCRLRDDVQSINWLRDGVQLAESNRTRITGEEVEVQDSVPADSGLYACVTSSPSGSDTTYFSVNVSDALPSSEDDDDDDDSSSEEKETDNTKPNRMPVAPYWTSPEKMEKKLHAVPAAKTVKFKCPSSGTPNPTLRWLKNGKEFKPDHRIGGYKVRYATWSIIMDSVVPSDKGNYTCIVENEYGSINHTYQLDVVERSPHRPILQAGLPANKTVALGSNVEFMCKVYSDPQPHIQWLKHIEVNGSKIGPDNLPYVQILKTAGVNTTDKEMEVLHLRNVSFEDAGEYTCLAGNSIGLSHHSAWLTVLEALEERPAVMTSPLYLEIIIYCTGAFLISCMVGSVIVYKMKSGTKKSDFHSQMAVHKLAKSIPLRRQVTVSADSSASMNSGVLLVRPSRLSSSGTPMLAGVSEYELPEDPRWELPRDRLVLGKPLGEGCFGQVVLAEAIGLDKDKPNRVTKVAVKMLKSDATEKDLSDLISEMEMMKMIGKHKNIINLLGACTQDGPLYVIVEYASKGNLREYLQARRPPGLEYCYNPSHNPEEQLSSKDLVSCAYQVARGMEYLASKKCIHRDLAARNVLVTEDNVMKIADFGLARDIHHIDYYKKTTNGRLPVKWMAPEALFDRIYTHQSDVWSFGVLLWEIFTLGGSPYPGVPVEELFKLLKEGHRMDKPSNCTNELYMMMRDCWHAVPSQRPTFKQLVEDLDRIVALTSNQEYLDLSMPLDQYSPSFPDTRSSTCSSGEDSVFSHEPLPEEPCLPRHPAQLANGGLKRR

FGFR3 = FGFR3 (UniProt P22607); test: as above
Fer (mouse) = test: as above
Fes = Fes (UniProt P07332); test: as above
Sequence of Fes (P07332 whole entry, looked up): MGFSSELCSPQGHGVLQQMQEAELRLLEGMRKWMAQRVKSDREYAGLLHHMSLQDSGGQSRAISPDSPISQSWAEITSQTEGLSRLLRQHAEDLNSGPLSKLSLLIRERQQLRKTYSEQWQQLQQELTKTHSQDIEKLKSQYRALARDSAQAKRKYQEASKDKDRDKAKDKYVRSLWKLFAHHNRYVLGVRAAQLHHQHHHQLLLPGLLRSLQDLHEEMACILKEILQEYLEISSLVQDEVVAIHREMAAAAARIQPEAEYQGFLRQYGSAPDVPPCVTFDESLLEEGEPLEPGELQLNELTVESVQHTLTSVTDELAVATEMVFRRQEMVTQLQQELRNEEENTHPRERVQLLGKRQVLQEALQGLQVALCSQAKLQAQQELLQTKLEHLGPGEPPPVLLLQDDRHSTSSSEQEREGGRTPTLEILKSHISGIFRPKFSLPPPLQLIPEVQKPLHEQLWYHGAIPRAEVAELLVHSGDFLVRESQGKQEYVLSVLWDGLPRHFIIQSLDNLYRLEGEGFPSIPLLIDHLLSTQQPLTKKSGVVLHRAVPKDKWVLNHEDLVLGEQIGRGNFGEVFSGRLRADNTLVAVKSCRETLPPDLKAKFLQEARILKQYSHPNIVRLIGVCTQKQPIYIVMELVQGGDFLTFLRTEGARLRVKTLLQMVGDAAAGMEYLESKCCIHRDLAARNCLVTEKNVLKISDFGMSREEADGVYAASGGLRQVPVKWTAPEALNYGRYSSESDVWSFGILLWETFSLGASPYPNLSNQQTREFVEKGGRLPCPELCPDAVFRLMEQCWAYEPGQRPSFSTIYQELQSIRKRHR

Fyn = Fyn (UniProt P06241); test: as above
Sequence of Fyn (P06241 whole entry, looked up): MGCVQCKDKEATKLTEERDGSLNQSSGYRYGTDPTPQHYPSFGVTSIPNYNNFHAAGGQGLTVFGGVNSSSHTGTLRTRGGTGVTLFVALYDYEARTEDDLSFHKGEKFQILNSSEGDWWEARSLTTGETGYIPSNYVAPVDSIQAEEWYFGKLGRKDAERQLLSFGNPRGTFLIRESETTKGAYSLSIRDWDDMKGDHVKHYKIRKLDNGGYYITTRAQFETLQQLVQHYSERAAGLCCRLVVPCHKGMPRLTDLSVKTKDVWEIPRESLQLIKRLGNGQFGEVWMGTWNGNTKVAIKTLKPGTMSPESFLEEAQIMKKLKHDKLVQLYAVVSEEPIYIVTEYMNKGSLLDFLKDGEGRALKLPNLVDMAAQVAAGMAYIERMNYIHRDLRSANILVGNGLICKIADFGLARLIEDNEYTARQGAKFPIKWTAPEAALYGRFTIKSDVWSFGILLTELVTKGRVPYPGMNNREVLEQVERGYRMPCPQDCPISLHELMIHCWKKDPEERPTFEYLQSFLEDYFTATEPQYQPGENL

Hck = Hck (UniProt P08631); test: as above
Sequence of Hck (P08631 whole entry, looked up): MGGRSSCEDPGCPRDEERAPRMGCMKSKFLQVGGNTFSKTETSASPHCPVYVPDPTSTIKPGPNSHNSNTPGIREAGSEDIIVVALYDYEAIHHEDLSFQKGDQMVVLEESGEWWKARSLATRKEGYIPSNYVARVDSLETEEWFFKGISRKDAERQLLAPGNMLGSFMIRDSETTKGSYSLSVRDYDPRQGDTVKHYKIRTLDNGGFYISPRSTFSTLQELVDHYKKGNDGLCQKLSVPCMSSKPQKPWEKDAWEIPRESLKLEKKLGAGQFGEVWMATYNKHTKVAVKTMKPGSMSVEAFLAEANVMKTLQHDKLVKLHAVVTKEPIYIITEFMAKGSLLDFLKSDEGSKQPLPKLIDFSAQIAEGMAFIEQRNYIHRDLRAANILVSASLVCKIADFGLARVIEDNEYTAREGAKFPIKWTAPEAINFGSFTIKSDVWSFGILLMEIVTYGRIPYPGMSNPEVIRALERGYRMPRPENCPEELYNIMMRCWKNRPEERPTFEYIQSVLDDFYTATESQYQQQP

Jak2 = Jak2 (UniProt O60674); test: as above
Sequence of Jak2 (O60674 whole entry, looked up): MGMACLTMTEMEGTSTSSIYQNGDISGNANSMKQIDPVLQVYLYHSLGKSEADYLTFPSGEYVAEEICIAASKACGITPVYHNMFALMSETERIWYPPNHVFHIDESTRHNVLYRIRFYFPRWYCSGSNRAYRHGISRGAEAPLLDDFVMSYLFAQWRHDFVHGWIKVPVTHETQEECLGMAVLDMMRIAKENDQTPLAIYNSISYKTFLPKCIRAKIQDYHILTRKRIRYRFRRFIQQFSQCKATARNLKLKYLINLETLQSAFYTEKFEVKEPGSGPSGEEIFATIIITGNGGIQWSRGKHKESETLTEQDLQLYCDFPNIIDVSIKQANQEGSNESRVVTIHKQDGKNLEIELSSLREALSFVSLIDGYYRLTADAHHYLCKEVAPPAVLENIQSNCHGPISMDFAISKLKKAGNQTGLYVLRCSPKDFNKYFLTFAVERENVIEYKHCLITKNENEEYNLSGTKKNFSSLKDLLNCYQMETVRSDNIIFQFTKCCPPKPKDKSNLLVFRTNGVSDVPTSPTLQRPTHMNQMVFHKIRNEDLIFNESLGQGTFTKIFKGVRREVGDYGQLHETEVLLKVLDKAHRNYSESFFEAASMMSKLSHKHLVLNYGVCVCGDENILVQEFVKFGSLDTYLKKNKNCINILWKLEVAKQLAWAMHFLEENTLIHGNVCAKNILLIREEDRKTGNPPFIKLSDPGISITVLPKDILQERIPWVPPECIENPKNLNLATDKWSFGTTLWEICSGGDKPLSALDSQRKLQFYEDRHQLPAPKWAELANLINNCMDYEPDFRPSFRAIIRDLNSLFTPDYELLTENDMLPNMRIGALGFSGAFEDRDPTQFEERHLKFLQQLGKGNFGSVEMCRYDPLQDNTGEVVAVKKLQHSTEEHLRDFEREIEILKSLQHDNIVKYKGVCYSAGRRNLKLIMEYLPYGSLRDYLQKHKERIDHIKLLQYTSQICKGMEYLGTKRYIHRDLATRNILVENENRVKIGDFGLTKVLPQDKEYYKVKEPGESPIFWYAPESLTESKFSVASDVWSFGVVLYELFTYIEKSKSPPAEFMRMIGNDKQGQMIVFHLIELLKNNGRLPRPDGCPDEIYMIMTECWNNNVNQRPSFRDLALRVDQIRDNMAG

MERTK = MERTK (UniProt Q12866); test: as above
Sequence of MERTK (Q12866 whole entry, looked up): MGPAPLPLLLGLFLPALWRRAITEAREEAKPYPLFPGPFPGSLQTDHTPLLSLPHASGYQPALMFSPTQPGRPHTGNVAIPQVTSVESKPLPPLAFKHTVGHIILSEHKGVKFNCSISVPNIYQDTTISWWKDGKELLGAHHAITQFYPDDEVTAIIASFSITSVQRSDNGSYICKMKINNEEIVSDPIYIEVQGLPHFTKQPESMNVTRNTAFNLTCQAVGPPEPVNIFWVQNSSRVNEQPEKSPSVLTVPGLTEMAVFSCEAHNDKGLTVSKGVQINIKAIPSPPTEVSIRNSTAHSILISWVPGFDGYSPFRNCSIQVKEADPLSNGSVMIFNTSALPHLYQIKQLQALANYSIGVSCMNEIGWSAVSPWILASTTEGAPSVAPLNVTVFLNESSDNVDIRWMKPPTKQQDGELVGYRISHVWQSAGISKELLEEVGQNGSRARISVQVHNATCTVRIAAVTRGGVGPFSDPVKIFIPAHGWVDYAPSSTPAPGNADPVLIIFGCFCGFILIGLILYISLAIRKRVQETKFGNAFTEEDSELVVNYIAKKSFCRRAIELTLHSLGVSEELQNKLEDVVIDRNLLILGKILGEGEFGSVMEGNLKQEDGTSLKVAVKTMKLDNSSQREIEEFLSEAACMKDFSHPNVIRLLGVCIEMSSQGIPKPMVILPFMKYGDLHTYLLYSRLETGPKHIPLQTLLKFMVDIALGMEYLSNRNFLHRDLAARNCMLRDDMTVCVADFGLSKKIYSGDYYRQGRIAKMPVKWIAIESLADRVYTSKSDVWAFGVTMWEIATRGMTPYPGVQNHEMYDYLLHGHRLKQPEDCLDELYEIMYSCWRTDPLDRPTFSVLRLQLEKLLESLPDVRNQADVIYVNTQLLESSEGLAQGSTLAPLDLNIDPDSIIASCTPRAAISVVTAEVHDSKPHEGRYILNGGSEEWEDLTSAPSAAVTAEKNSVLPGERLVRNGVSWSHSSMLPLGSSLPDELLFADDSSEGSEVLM

c-Abl (mouse) = test: as above
c-Src = test: as above
Grb2 SH2 = Grb2 SH2 (UniProt P62993); test: SH2 binding enrichment of the phosphorylated peptide, bacterial display (enrichment ratio); higher = better substrate or ligand; peptides without Tyr show the background
SHP2-C SH2 = test: as above
c-Src SH2 = test: as above
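Wherever SH2 binding enrichment of the phosphorylated peptide, bacterial display is given: peptide library displayed on the E. coli surface as eCPX fusions, selected cells deep-sequenced, score is each peptide's frequency after selection divided by its frequency in the input.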
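Wherever phosphorylation enrichment, bacterial display is given: 11-residue human phosphosite peptides and single-mutation variants displayed on the E. coli surface, counted by deep sequencing, each peptide's frequency after selection divided by its frequency in the unselected input library; frequency after pTyr selection over input frequency; kinase dosed for 20-30% of maximal phosphorylation in three min.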

SH2 binding enrichment (Grb2 SH2) | SH2 binding enrichment (SHP2-C SH2) | SH2 binding enrichment (c-Src SH2) | Sequence | phosphorylation enrichment (AncSZ) | phosphorylation enrichment (EPHB1) | phosphorylation enrichment (EPHB2) | phosphorylation enrichment (FGFR1) | phosphorylation enrichment (FGFR3) | phosphorylation enrichment (Fer (mouse)) | phosphorylation enrichment (Fes) | phosphorylation enrichment (Fyn) | phosphorylation enrichment (Hck) | phosphorylation enrichment (Jak2) | phosphorylation enrichment (MERTK) | phosphorylation enrichment (c-Abl (mouse)) | phosphorylation enrichment (c-Src)
1.05 | 1.1 | 0.88 | TKLKDYYIFNK [CCDC42_Y149_A144T] | 1.02 | 0.811 | 0.691 | 4.92 | 3.16 | 0.538 | 0.91 | 0.579 | 0.752 | 1.49 | 1.28 | 0.736 | 1.37
0.748 | 0.884 | 0.983 | TLLERYGMIEI [ACSF3_Y355_T358I] | 0.798 | 0.606 | 0.535 | 0.515 | 0.644 | 0.632 | 1.06 | 0.525 | 0.465 | 1.02 | 0.489 | 0.802 | 0.472
0.828 | 1.43 | 1.93 | TLSGTYQYIIA [FOXL2_Y81_I80T] | 1.05 | 5.25 | 2.21 | 5.91 | 3.44 | 5.51 | 1.08 | 1.06 | 3.11 | 1.05 | 7.42 | 1.05 | 1.17
0.883 | 0.976 | 0.675 | TNFPLYLRSLE [MTM1_Y71_R69P_YF] | 0.716 | 0.685 | 0.51 | 0.449 | 0.544 | 0.401 | 0.761 | 0.413 | 0.505 | 1.13 | 0.378 | 0.493 | 0.492
0.671 | 0.488 | 0.442 | TPGPNYRPGYN [USH2A_Y463] | 0.562 | 0.39 | 0.542 | 0.232 | 0.676 | 0.294 | 0.549 | 0.432 | 0.346 | 0.597 | 0.487 | 0.404 | 0.309
0.742 | 0.557 | 0.509 | TQFWLYFAGNL [SLC25A5_Y112] | 1.23 | 0.681 | 0.665 | 0.534 | 1 | 0.498 | 1.57 | 0.376 | 0.479 | 1.64 | 0.576 | 1.22 | 0.652
1.15 | 0.598 | 0.506 | TRHDEYLEVTK [MAP1A_Y2217] | 0.882 | 0.464 | 0.547 | 0.589 | 1.11 | 0.421 | 1.03 | 0.565 | 0.399 | 0.726 | 0.343 | 0.612 | 0.401
0.706 | 0.565 | 1.65 | TRSYDYTEGGD [FGF7_Y58_M59T] | 0.898 | 0.439 | 0.465 | 0.61 | 0.59 | 0.414 | 0.976 | 0.56 | 0.446 | 0.876 | 0.463 | 0.642 | 0.375
0.998 | 1.11 | 0.647 | TTKGSYSLYVR [HCK_Y180_S183Y] | 1.02 | 0.667 | 0.581 | 0.464 | 0.671 | 0.474 | 1.16 | 0.462 | 0.458 | 1.02 | 0.43 | 0.666 | 0.373
0.696 | 0.383 | 2.11 | TTPAVYARVTK [CTRB2_Y246_A250T] | 0.443 | 0.665 | 0.768 | 0.262 | 0.496 | 0.378 | 0.442 | 2.46 | 2.42 | 0.618 | 0.725 | 1.32 | 3.55
0.814 | 0.805 | 0.391 | TVEDHYFEGGI [TKT_Y563_YF] | 1.1 | 0.726 | 0.625 | 0.762 | 1.03 | 0.559 | 1.05 | 0.519 | 0.497 | 0.776 | 0.444 | 0.798 | 0.472
0.667 | 0.757 | 0.591 | TVFSDYLHPQF [CCPG1_Y569_YF] | 4.45 | 1.02 | 0.573 | 1.03 | 0.938 | 0.43 | 1.22 | 0.69 | 0.643 | 1.83 | 0.805 | 1.53 | 1.07
0.88 | 0.76 | 0.541 | TVFSDYLHPQY [CCPG1_Y569] | 2.34 | 0.727 | 0.505 | 0.699 | 0.723 | 0.398 | 0.944 | 0.43 | 0.457 | 1.36 | 0.417 | 0.785 | 0.498
2.18 | 0.676 | 0.718 | TVHCDYLNIPH [TAF1L_Y1385] | 0.959 | 3.02 | 0.706 | 6.63 | 3.97 | 0.46 | 1.02 | 0.464 | 0.55 | 0.941 | 0.442 | 0.521 | 0.718
1.28 | 1.3 | 1.06 | TVLWLYTGTRP [UGT1A1_Y337_R336L] | 1.17 | 0.548 | 0.487 | 0.369 | 0.742 | 0.527 | 1.27 | 0.68 | 0.466 | 1.06 | 0.318 | 0.532 | 0.255
1.02 | 2.08 | 0.752 | TVLWWYTGTRP [UGT1A1_Y337_R336W] | 1.3 | 0.458 | 0.513 | 0.389 | 0.68 | 0.398 | 1.32 | 0.4 | 0.41 | 1.23 | 0.277 | 0.599 | 0.311
1.11 | 0.828 | 1.02 | VAHAVYQAVLS [SMG1_Y549] | 0.899 | 9.09 | 7.85 | 0.656 | 0.591 | 8.18 | 0.935 | 5.92 | 8.28 | 0.666 | 4.22 | 1.14 | 4.58
